From paper PMC9201380, “Structural Characterization of a Neutralizing Nanobody With Broad Activity Against SARS-CoV-2 Variants” (Frontiers in Microbiology, 2022)

Biological target: SARS-CoV-2 S receptor-binding domain (residues 330-531), Avi-tagged and biotinylated (SARS-CoV-2, UniProt P0DTC2)
Assay: BLI; Octet RED96; biotinylated RBD (2 μg mL^-1) immobilized on SA sensor; DL28 as analyte at 2, 5, 10 and 20 nM; 30°C; 1x PBS, 0.05% Tween 20; association 360 s, dissociation 600 s; 1:1 fit
Details: both partners purified

B1: DL28 (monovalent nanobody) (VHH)
VHH: QVQLQESGGGLVQAGGSLRLSCAASGSDFSSSTMGWYRQAPGKQREFVAISSEGSTSYAGSVKGRFTISRDNAKNTVYLQMNSLEPEDTAVYYCNVVDRWYDYWGQGTQVTVSA
notes: also called monovalent DL28
Kd: 1.56 nM
